The values that follow come from paper PMC9440762, “Anti-Stokes fluorescence excitation reveals conformational mobility of the C-phycocyanin chromophores” (Structural Dynamics, 2022).

A word on the stoichiometry N: it is the number of molecules, sites or subunits per partner or assembly.

Data set [1] has as its target T1, C-phycocyanin β subunit from Arthrospira platensis (Arthrospira platensis (Spirulina), UniProt P72508 1-172, phycocyanobilin covalently bound to the cysteines at positions 82 and 153).
T1 construct: C-phycocyanin β subunit, Arthrospira platensis (Spirulina); also called β C-PC chain
T1 sequence (looked up): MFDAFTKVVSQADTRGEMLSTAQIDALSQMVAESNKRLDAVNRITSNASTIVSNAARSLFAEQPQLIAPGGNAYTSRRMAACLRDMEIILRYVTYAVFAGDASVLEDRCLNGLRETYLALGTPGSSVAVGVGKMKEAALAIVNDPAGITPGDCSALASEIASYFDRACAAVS
The experiment in a line: SEC; preparative Superdex 200 26/600, 20 mM Tris-HCl pH 7.6, 150 mM NaCl; fractions of the main peak analysed by SDS-PAGE. To be noted: both partners purified. On the technique in general: SEC sorts molecules by how far they enter the pores of the column.

Data set [2] concerns the molecule itself. Put plainly: SAXS; C-PC in solution at 150 mM NaCl; fits with trimer and hexamer models, MW estimate, ab initio shape by GASBOR; also at 4, 6 and 8 M urea (decrease in the oligomeric state, partial dissociation of trimers).

B1: C-phycocyanin α subunit from Arthrospira platensis (natural protein)
chain: not shown
modifications: phycocyanobilin covalently bound to the cysteine at position 84
notes: C-phycocyanin α subunit, Arthrospira platensis (Spirulina); also called α C-PC chain
On to B1, for which the binding result in data set [1] is reported as “binds”.

B2: C-phycocyanin αβ monomer (heterodimer of the α and β subunits) from Arthrospira platensis (complex)
chain 1: not shown
chain 2: T1 sequence (looked up)
modifications: phycocyanobilin covalently bound to the cysteine at position 84 | phycocyanobilin covalently bound to the cysteines at positions 82 and 153
notes: C-phycocyanin α subunit, Arthrospira platensis (Spirulina); band of apparent MW 16 or 18 kDa on SDS-PAGE; C-phycocyanin β subunit, Arthrospira platensis (Spirulina); The unit that associates with itself into the (αβ)3 trimer; Linker polypeptides are absent from the preparation; also called C-PC; PC
B2: the “stoichiometry N” value in data set [2] was 3.
